According to patent US20230095569A1:
Positions count from the first letter of the chain named.

B1: Ab25 (antibody, V domains shown)
VH: EAQLQQSGPELVKPGASVKIFCKASGYTFTDYYINWVKQSHGKSLEWIGDINPNNGGTTYNQKFKGKATLTVDKSSSTASMELRRLTSEDSSVYYCARRDAMDYWGQGTSVTVSS
VL: DIVMTQSQKFMSTTVGDRVSITCTASQNVGPAVAWYQQKPGQSPKLLIYSASRRFTGVPDRFTGSGSGTVFTLTINNVQSEDLADYFCQQYISYPLTFGAGTKLELK
B2: Ab26 (antibody, V domains shown)
VH: EVMLVESGGGLVKPGGSLKLSCTASGFTFRSYTMSWVRQTPEKRLEWVATITGGGGNTYFLDSVKGRFTFSRDNAKNALYLQMNSLRSEDTALYYCARLGQTQRNAMDYWGQGTSVTVSS
VL: DIVMTQSPSSLSVSAGEKVTMSCKSSQSLLNSGNQMNYLAWYQQKPGQPPKLLIYGASTRESGVPDRFTGSGSGTDFTLTISSVQAEDLAIYYCQNDHTYPLTFGAGTKLEL
B3: Ab27 (antibody, V domains shown)
VH: QVQLQQSGAELVRPGSSVKISCKASGYAFSNYWMNWVKQRPGQGLEWIGQIYPGNGDTNYNGKFKGKATLTADKSSTTAYIQLSSLTSEDSAVYFCTRIYYGNSFAYWGQGTLVTVS
VL: DIVMTQSPSSLTVTAGERVTMSCKSSQSLLNSGNQKNYLTWYQQKPGQPPKLLIYWASTRESGVPDRFTGSGSGTDFTLTISRVQAQDLAVYYCQNDYYYPLTFGAGTKLELK
B4: Ab03 (antibody, V domains shown)
VH: EVQLQQSGPELVKPGASVKIACKASGYTFTDYNMDWVKQSHGKSLEWIGNINSYYGGTIYNQKFKGKATLTVDKSSSTAYMVLRSLTSEDNAVYYCARPHLGNALDYWGQGTSITVSS
VL: DIVVTQSPSSLTVTPGEKVTMSCKSSQSLFNSGNQKNYLSWYQQNPGQPPKLLIYWASTRQSGVPDRFTGSGSGTDFTLTISSVQAEDLAGYYCQNDYIFPLTFGAGTKLELK
B5: Ab29 (antibody, V domains shown)
VH: EVLLQQSGPELVKPGASVKIPCKASGYTLTDHSMDWVKQSHGKSLEWIGNILPNNGGNIYNQKFRGKATLTVDKSSSTAYMELRSLTSEDTAVYNCARGHYGNSFAYWGQGTLVIVS
VL: DIVMTQSPSSLTVRAGEKVTIYCKSSQSLFNSGNQKNYLTWYQQKPGQPPKLLIYWASTRESGVPHRFTGSGSGTDFTLTISSMQADDLATYYCQNGYFFPYTFGGGTKLEIK
B6: Ab30 (antibody, V domains shown)
VH: QVQLKESGPGLVAPSQSLSITCTVSGFSLTKFGVNWVRQPPGKGLEWLGAIWGDGSTNYHSALISRLSINKDNSKSQVFLKLSSLQNVDTATYYCAKSGYGNAMDYWGHGTSVTVSS
VL: DIVMTQSPSSLTVTTGEKVTLNCKSSQSLLNSGNLKNYLTWYQQRPGQPPKLLIYWASTRESGVPYRFTGSGSGTDFTLTISNVQAEDLAIYYCQNDYFFPFTFGSGTKLEIK
B7: Ab31 (antibody, V domains shown)
VH: QIQLAQSGPELKKPGETVKISCKASGYSFTNYGMNWVKQAPGKGLKWMGWINTYSGETKYADDFKGRFDFSLETSARTAYLQIKNLKIEDTATYFCARRDAMDYWGQGTSVTVSS
VL: DIVMTQAAPSVPVTPGESVSISCRSSKSLLNSNGNTYLYWFLQRPGQSPQLLIYRMSNLASGVPDRFSGSGSGTAFTLRISRVEAEDVGVYYCMQHLEFPFTFGSGTKLEIK
B8: Ab34 (antibody, V domains shown)
VH: EVLLQQSGPELVKPGASVKIPCKASGYTFSDYNMDWVKQSHGKSLEWIGHINPNNDNTIYNQKFKGKATLTVDKSSNTAYMDLRSLSSEDTAVYYCARGAYYGNSMDYWGQGTSVTVSS
VL: DIVMTQSPSSLTVTAGERVTMSCKSSQSLLNGGNQRNYLTWYQQKPGQSPKLLIYWASTWESGVPDRFTGSGSGTDFTLTISSVQAEDLAVYYCQNAYFYPYTFGGGTKLEIK
B9: Ab35 (antibody, V domains shown)
VH: DVFLQESGPGLVKPSQSLSLTCTVTGYSITSDYAWNWIRQFPGNKLEWVTYIGYSGTTSYNPSLKSRISITRDTSKNQFFLQLNSVSTEDTATYYCVRRGSYYGSYWFFDVWGAGTTVTVSS
VL: QVVLSQSPAILSASPGEKVTMTCRASSSVSYMHWYQQKPGSSPKPWIYATSNLASGVPPHFSGSGSGTSYSLTISRVEAEDAATYYCQQWTSNPPTFGGGTKLEIK
B10: Ab37 (antibody, V domains shown)
VH: EVKLEESGGGLVQPGGSMKLSCVASGFTFSNYWMNWVRQYPEQGLEWVAQIRLNSDNYATHYAESVKGRFTISRDDSRSTVYLQMNNLRAEDTGIYYCTGGGEYWGQGTTLTVSS
VL: B1 VL with V15I, T24K, G30D, P31T, R53T, F55Y, V70D, N76S, V78M, P95Q
B11: Ab04 (antibody, V domains shown)
VH: EVQLQQSGPELVKPGASVKMSCMASGYTFTDYNIHWVKRSHGSRLEWIGYISPISGGAGYNQKFMDKATLTVDKSSNTAYMELRSLTSEDSAVYYCTRGDYWGQGTTLTVSS
VL: DIVMTQSPSSLAVTVGEKVTMSCKSSQSLLNSGNQKNYLTWYQQKPGQPPKLLIYWASTRKSGVPDRFTGSGSGTDFTLTISSVQAEDLGIYYCLNDYGFPLTFGAGSKLELK
B12: Ab05 (antibody, V domains shown)
VH: DVKLVESGEDLVKPGGSLKLSCAASGFTFSNYAMSWVRQTPEKRLEWVAYVSSGGDYIYYADTVKGRFIISRDNARNTLYLQMNSLRSEDTAMYYCARVYFGNSLDYWGQGTTLTVSS
VL: B8 VL with R18K, M21L, R36K, K45R, S49P, W60R, T80I, A97D, F99Y, Y102W
B13: Ab06 (antibody, V domains shown)
VH: EVQLVASGGGLVKPGGSLKLSCAASGITFRSYAMSWVRQTPEKRLEWVATITDGGSYIFYPDNVKGRFTISGDHAKNNLYLQMSHLKSEDTALYFCVRLYYGNSFAYWGQGTLVTVSA
VL: DIVMTQSPSSLTVTAGEKVTLNCKSSQSLFNSGNQKNYLTWYQQKPGQPPKLLIYWASTRESGVPDRFTGSGSGTDFTLTFSSVQAEDLAVYYCQNAYIYPFTFGSGTKLEIK
B14: Ab07 (antibody, V domains shown)
VH: EVQLQQSGPELVKPGASVKISCKASGYSFTDYFMNWVKQSHGKGLEWIGRINPYNGDTFYNQKFKGKATLTVDKSSSTAHMELLSLTSEDFAVYYCALYDGYWGAFVYWGQGTLVTVSA
VL: DIQMTQSPASLSVFVGETVTITCRASENIYSNLAWYQQKQGKSPQLLVYAATNLADGVPSRFSGSGSGTQYSLKINSLQSEDFGSYYCQHFWGTPLTFGAGTKLELK
B15: Ab01 (antibody, V domains shown)
VH: DVQLQESGPGLVKPSQSLSLTCSVTGYSITSGYYWNWIRQFPGNKLEWMGYITYDGSNNYNPSLKNRISITRDTSKNQFFLKLNSVTTEDAATYFCARDPNYYGTTLPAWFVYWGQGTLVTVSA
VL: DIVVTQSHKFMSTSVGDRVSITCKASQDVGTAVAWYQQKPGQSPKLLIYWASTRHTGVPDRFTGSGSGTDFTLTISNVQSEDLTDYFCQQYSSYVTFGAGTKLELK

Tests used:
[1] = target: mouse Claudine18.2 (mouse) (UniProt P56857); assay: FACS on CHOK1-m18.2 cells
[2] = target: Rhesus monkey Claudine18.2 (Rhesus monkey) (UniProt F6YQY3); assay: FACS on CHOK1-rh18.2 cells

| Binder | FACS MFI [1] | FACS MFI [2] |
| --- | --- | --- |
| B1 | 23400 | 12000 |
| B2 | 15700 | 8290 |
| B3 | 8240 | 9240 |
| B4 | 2970 | 1430 |
| B5 | 21900 | 25700 |
| B6 | 9610 | 10500 |
| B7 | 7790 | 8010 |
| B8 | 10700 | 6720 |
| B9 | 9610 | 8340 |
| B10 | 18600 | 16700 |
| B11 | 8440 | 2130 |
| B12 | 12500 | 9850 |
| B13 | 13200 | 14000 |
| B14 | 15000 | 9040 |
| B15 | 12700 | 8380 |
